From US7858745B2, “Use of specifically engineered enzymes to enhance the efficacy of prodrugs” (The Board of Trustees of the University of Illinois, priority 2003, dated 2010)

What was measured:
[1] = tested on: Nc1ccn([C@@H]2O[C@H](CO)[C@@H](O)C2(F)F)c(=O)n1; test: purified protein, by the assay type; conditions: other: nucleoside as substrate, pH 7.5
[2] = tested on: Nc1ccn([C@H]2CC[C@@H](CO)O2)c(=O)n1; test: purified protein, by the assay type; conditions: other: nucleoside as substrate, dCK 0.4 μM, ATP•Mg 1 mM, 37° C., pH 7.5
[3] = dCK 0.4 μM, ATP•Mg 1 mM, 37° C.

Sequence of A100V/R104M/D133A-dCK (Homo sapiens; A100V/D133A/R104M) (chain, as listed by the source A100V R104M D133A A100V D133A R104M): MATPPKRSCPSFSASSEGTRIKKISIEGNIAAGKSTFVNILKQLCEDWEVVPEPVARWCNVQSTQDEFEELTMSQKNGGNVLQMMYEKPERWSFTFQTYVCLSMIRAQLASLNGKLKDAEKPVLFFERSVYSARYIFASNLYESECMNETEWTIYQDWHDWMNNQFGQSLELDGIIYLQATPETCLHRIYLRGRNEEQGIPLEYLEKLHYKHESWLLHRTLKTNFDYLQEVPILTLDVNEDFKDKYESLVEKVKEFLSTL
Sequence of Wild Type dCK (Homo sapiens) (chain, as listed by the source): as the sequence (chain, as listed by the source A100V R104M D133A A100V D133A R104M) above, with V100A, M104R, A133D counted along it

Row | Substance | Km ([1]; triple mutant, 37.0 °C) [µM] | kcat ([1]; triple mutant, 37.0 °C) [s⁻¹] | kcat/Km ([1]; triple mutant, 37.0 °C) [M⁻¹ s⁻¹] | Km [1, 3] [µM] | kcat [1, 3] [s⁻¹] | kcat/Km [1, 3] [M⁻¹ s⁻¹] | Km [2] [µM] | kcat [2] [s⁻¹] | kcat/Km [2] [M⁻¹ s⁻¹]
1 | A100V/R104M/D133A-dCK (Homo sapiens; A100V/D133A/R104M) | 50 | 3.52 | 70400 | – | – | – | – | – | –
2 | Wild Type dCK (Homo sapiens) | – | – | – | 22.0 | 0.37 | 16800 | 406.8 | 0.18 | 400
